Measurements as given in patent publication KR20230038028A (dated 2023).

Legend:
Test in all cases: western blot of E. coli lysate supernatant
S2p2-2(서열 686~1144) = molecular target: T1, S2p2-2(서열 686~1144) (SARS-CoV-2, UniProt P0DTC2 686-1144)
T1 construct: range 686-1144

[1] = molecular target: T2, His-S2p2-1(서열 686~1177 아미노산) (SARS-CoV-2, UniProt P0DTC2 686-1177)
T2 construct: range 686-1177

His-S2p2(서열 686~1207) = molecular target: T3, His-S2p2(서열 686~1207) (SARS-CoV-2, UniProt P0DTC2 686-1207)
T3 construct: range 686-1207

Measured: binding result

B1: 항-스파이크2(Spike2, S2) 단일클론 항체 4A5 (antibody, V domains shown)
VH: QVKLEQSGPGILQPSQTLSLTCSFSGFSLSTSGMGVSWIRQSSGKGLEWLTHIYWDDDKRYNPSLKSRLTISKDTSRNQVFLKITSVDTADTATYYCARRRMITGLYYAMDYWGQGTSVTVSS
VL: DIVMTQSTLSLPVSFGDQVSISCRSSQSLANSYGITYLSWYLHKPGQSPQLLIYGISNRFSGVPDRFSGSGSGTDFTLKISTIKPEDLGMYYCLQGTHQPWTFGGGTKLEIKR
notes: also called 4A5 항체; 항-S2 항체 4A5
binds: all assays above
